Assay results published in patent US20240366776A1 (Hoffmann-La Roche, published 2024).
Numbering of substitutions follows the chain as printed.

T1: biotinylated IL-2 receptor beta gamma heterodimer Fc (IL-2RBG; Acro ILG-H5254) (UniProt P14784 27-239; P31785 23-262, biotinylated)
T1 construct: bought heterodimer
T1 sequence (looked up) 1: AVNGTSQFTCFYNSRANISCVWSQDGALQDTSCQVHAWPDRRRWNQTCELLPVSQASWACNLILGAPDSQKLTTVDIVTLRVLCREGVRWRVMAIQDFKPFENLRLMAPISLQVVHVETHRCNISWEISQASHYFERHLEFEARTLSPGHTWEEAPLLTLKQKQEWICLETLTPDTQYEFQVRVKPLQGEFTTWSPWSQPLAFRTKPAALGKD
T1 sequence (looked up) 2: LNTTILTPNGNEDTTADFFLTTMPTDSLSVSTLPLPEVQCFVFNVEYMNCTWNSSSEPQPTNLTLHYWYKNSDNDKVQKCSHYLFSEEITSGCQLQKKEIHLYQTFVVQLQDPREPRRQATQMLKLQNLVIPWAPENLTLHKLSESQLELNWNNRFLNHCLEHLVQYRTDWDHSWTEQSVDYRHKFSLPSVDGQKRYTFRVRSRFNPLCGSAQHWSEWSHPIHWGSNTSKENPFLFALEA

B1: AF003232 (other)
heavy 1: APASSSTKKTQLQLEHLLLDLQMILNGINNYKNPKLTRMLTAKFAMPKKATELKHLQCLEEELKPLEEVLNGAQSKNFHLRPRDLISNINVIVLELKGSETTFMCEYADETATIVEFLNRWITFAQSIISTLTGGGGSGGGGSGGGGSGGGGSQVQLVQSGAEVKKPGASVKVSCKASGDTFTRHYVHWVRQAPGQGLEWMGIINPSGGYASYAQKFQGRVTMTRDTSTSTVYMELSSLRSEDTAVYYCAAGLFIWGQGTLVTVSSAKTTAPSVYPLAPVCGDTTGSSVTLGCLVKGYFPEPVTLTWNSGSLSSGVHTFPAVLQSDLYTLSSSVTVTSSTWPSQSITCNVAHPASSTKVDKKIEPRGPTIKPCPPCKCPAPNAAGGPSVFIFPPKIKDVLMISLSPIVTCVVVDVSEDDPDVQISWFVNNVEVHTAQTQTHREDYNSTLRVVSALPIQHQDWMSGKEFKCKVNNKDLGAPIERTISKPKGSVRAPQVYVLPPPEEEMTKKQVTLTCMVTDFMPEDIYVEWTNNGKTELNYKNTEPVLDSDGSYFMYSDLRVEKKNWVERNSYSCSVVHEGLHNHHTTESFSRTPGK
heavy 2: QVQLVQSGAEVKKPGASVKVSCKASGDTFTRHYVHWVRQAPGQGLEWMGIINPSGGYASYAQKFQGRVTMTRDTSTSTVYMELSSLRSEDTAVYYCAAGLFIWGQGTLVTVSSAKTTAPSVYPLAPVCGDTTGSSVTLGCLVKGYFPEPVTLTWNSGSLSSGVHTFPAVLQSDLYTLSSSVTVTSSTWPSQSITCNVAHPASSTKVDKKIEPRGPTIKPCPPCKCPAPNAAGGPSVFIFPPKIKDVLMISLSPIVTCVVVDVSEDDPDVQISWFVNNVEVHTAQTQTHREDYNSTLRVVSALPIQHQDWMSGKEFKCKVNNKDLGAPIERTISKPKGSVRAPQVYVLPPPEKEMTKKQVSLTCLVKDFMPEDIYVEWTNNGKTELNYKNTEPVLKSDGSYFMYSKLTVEKKNWVERNSYSCSVVHEGLHNHHTTKSFSRTPGGGGSGGGSHHHHHH
light: DIQMTQSPSSLSASVGDRVTITCRASQSIGRWLAWYQQKPGKAPKLLIYSASNLETGVPSRFSGSGSGTDFTLTISSLQPEDFATYYCQQYESFPVTFGPGTKVDIKRADAAPTVSIFPPSSEQLTSGGASVVCFLNNFYPKDINVKWKIDGSERQNGVLNSWTDQDSKDSTYSMSSTLTLTKDEYERHNSYTCEATHKTSTSPIVKSFNRNEC
notes: also called AF3232
B2: AF003740 (other)
heavy 1: B1 heavy 1 with H185Y
heavy 2: QVQLVQSGAEVKKPGASVKVSCKASGDTFTRYYVHWVRQAPGQGLEWMGIINPSGGYASYAQKFQGRVTMTRDTSTSTVYMELSSLRSEDTAVYYCAAGLFIWGQGTLVTVSSAKTTAPSVYPLAPVCGDTTGSSVTLGCLVKGYFPEPVTLTWNSGSLSSGVHTFPAVLQSDLYTLSSSVTVTSSTWPSQSITCNVAHPASSTKVDKKIEPRGPTIKPCPPCKCPAPNAAGGPSVFIFPPKIKDVLMISLSPIVTCVVVDVSEDDPDVQISWFVNNVEVHTAQTQTHREDYNSTLRVVSALPIQHQDWMSGKEFKCKVNNKDLGAPIERTISKPKGSVRAPQVYVLPPPEKEMTKKQVSLTCLVKDFMPEDIYVEWTNNGKTELNYKNTEPVLKSDGSYFMYSKLTVEKKNWVERNSYSCSVVHEGLHNHHTTKSFSRTPGK
light: B1 light with E92N
notes: also called AF3740
B3: AF003955 (other)
heavy 1: B1 heavy 1 with D180H, H185Y, V187M, S212T, A251S
heavy 2: B1 heavy 2 with D27H, H32Y, V34M, S59T, A98S
light: B1 light with G30N, R31S, S50A, A51T, N53T, T56S, E92Y, S93R, P100Q, D105E
notes: also called AF3955
B4: AF003951 (other)
heavy 1: APASSSTKKTQLQLEHLLLDLQMILNGINNYKNPKLTRMLTAKFAMPKKATELKHLQCLEEELKPLEEVLNGAQSKNFHLRPRDLISNINVIVLELKGSETTFMCEYADETATIVEFLNRWITFAQSIISTLTGGGGSGGGGSGGGGSGGGGSQVQLVQSGAEVKKPGASVKVSCKASGYTFTDYYMHWVRQAPGQGLEWMGIINPRAGYTSYALKFQGRVTMTRDTSTSTVYMELSSLRSEDTAVYYCTSGWDVWGQGTLVTVSSAKTTAPSVYPLAPVCGDTTGSSVTLGCLVKGYFPEPVTLTWNSGSLSSGVHTFPAVLQSDLYTLSSSVTVTSSTWPSQSITCNVAHPASSTKVDKKIEPRGPTIKPCPPCKCPAPNAAGGPSVFIFPPKIKDVLMISLSPIVTCVVVDVSEDDPDVQISWFVNNVEVHTAQTQTHREDYNSTLRVVSALPIQHQDWMSGKEFKCKVNNKDLGAPIERTISKPKGSVRAPQVYVLPPPEEEMTKKQVTLTCMVTDFMPEDIYVEWTNNGKTELNYKNTEPVLDSDGSYFMYSDLRVEKKNWVERNSYSCSVVHEGLHNHHTTESFSRTPGK
heavy 2: QVQLVQSGAEVKKPGASVKVSCKASGYTFTDYYMHWVRQAPGQGLEWMGIINPRAGYTSYALKFQGRVTMTRDTSTSTVYMELSSLRSEDTAVYYCTSGWDVWGQGTLVTVSSAKTTAPSVYPLAPVCGDTTGSSVTLGCLVKGYFPEPVTLTWNSGSLSSGVHTFPAVLQSDLYTLSSSVTVTSSTWPSQSITCNVAHPASSTKVDKKIEPRGPTIKPCPPCKCPAPNAAGGPSVFIFPPKIKDVLMISLSPIVTCVVVDVSEDDPDVQISWFVNNVEVHTAQTQTHREDYNSTLRVVSALPIQHQDWMSGKEFKCKVNNKDLGAPIERTISKPKGSVRAPQVYVLPPPEKEMTKKQVSLTCLVKDFMPEDIYVEWTNNGKTELNYKNTEPVLKSDGSYFMYSKLTVEKKNWVERNSYSCSVVHEGLHNHHTTKSFSRTPGGGGSGGGSHHHHHH
light: B1 light with G30S, R31T, S50A, N53S, E55D, T56S, Y91S, E92Y, P100Q, D105E
notes: also called AF3951
B5: AF003945 (other)
heavy 1: B1 heavy 1 with H185Y
heavy 2: B1 heavy 2 with H32Y
light: B1 light with R31S, E92N
notes: also called AF3945
B6: AF003749 (other)
heavy 1: B1 heavy 1 with H185Y
heavy 2: B2 heavy 2
light: B1 light with W32Y, S50Y, E92N
notes: also called AF3749
B7: AF003956 (other)
heavy 1: B4 heavy 1
heavy 2: B4 heavy 2
light: DIQMTQSPSSLSASVGDRVTITCRASQSISTWLAWYQQKPGKAPKLLIYAASSLDSGVPSRFSGSGSGTDFTLTISSLQPEDFATYYCQQSYRFPVTFGQGTKVEIKRADAAPTVSIFPPSSEQLTSGGASVVCFLNNFYPKDINVKWKIDGSERQNGVLNSWTDQDSKDSTYSMSSTLTLTKDEYERHNSYTCEATHKTSTSPIVKSFNRNEC
notes: also called AF3956
B8: AF003747 (other)
heavy 1: B1 heavy 1 with H185Y
heavy 2: B2 heavy 2
light: B1 light with W32Y, E92N
notes: also called AF3747
B9: AF003753 (other)
heavy 1: B1 heavy 1 with H185Y
heavy 2: B2 heavy 2
light: B1 light
notes: also called AF3753
B10: AF003953 (other)
heavy 1: B4 heavy 1 with D184T
heavy 2: B4 heavy 2 with D31T
light: B7 light with R93S
notes: also called AF3953
B11: AF003952 (other)
heavy 1: B4 heavy 1 with D184R
heavy 2: B4 heavy 2 with D31R
light: B7 light with R93S
notes: also called AF3952

Biological target: T1, biotinylated IL-2 receptor beta gamma …
Assay: ELISA, captured complex, biotin-IL-2RBG 10 nM, PD-1 Fc titrated
Procedure: The DBA-cytokine complexes and control antibody-cytokine complexes were produced in two formats: (1) “Symmetric” immunocytokine (shown in FIG. 2E); or (2) “Asymmetric” immunocytokine (shown in FIG. 2B) by expression in mammalian cells and purified using standard protocols. […] To perform the assay, 384-well ELISA plates were coated with anti-Fc antibody at 1 micrograms/ml in 100 mM bicarbonate solution pH 9.0 overnight at 4° C. and washed twice with SUPERBLOCK™. Antibody-cytokine complexes were then added to each well at a constant concentration of 6 nM and allowed to incubate for 1 hour and washed three times in PBS plus 0.05% TWEEN® 20 (PBST). Titrated concentrations of PD-1 Fc or an IgG1 control Fc were added and allowed to incubate for 15 minutes before the addition of a constant amount of biotinylated IL-2RBG at 10 nM. The plates were incubated for an additional 30 minutes, washed and biotinylated IL-2RBG detection was performed using streptavidin-HRP and standard ELISA protocols.

Binding result, binds:
B1, B2, B3, B4, B5, B6, B7, B8, B9, B10, B11
